Molecular target: 6xHis-SpaK G392A (C-terminal half of SpaK) (Bacillus subtilis)

## 6xHis-SpaK H247Q (C-terminal half of SpaK) (domain or fragment)
  autophosphorylation restored by combining the two SpaK mutants, each inactive alone (intermolecular complementation; 32P-ATP, SDS-PAGE and autoradiography, Fig. 5B lane 6) (% of wild type): 25

From publication PMC2686270
